B1: D1D2D3, mucin 2 recombinant protein spanning residues 21 to 1259 (domain or fragment, human, UniProt Q02817 21-1259, looked up)
chain: SELQTEGRTRNHGHNVCSTWGNFHYKTFDGDVFRFPGLCDYNFASDCRGSYKEFAVHLKRGPGQAEAPAGVESILLTIKDDTIYLTRHLAVLNGAVVSTPHYSPGLLIEKSDAYTKVYSRAGLTLMWNREDALMLELDTKFRNHTCGLCGDYNGLQSYSEFLSDGVLFSPLEFGNMQKINQPDVVCEDPEEEVAPASCSEHRAECERLLTAEAFADCQDLVPLEPYLRACQQDRCRCPGGDTCVCSTVAEFSRQCSHAGGRPGNWRTATLCPKTCPGNLVYLESGSPCMDTCSHLEVSSLCEEHRMDGCFCPEGTVYDDIGDSGCVPVSQCHCRLHGHLYTPGQEITNDCEQCVCNAGRWVCKDLPCPGTCALEGGSHITTFDGKTYTFHGDCYYVLAKGDHNDSYALLGELAPCGSTDKQTCLKTVVLLADKKKNVVVFKSDGSVLLNELQVNLPHVTASFSVFRPSSYHIMVSMAIGVRLQVQLAPVMQLFVTLDQASQGQVQGLCGNFNGLEGDDFKTASGLVEATGAGFANTWKAQSSCHDKLDWLDDPCSLNIESANYAEHWCSLLKKTETPFGRCHSAVDPAEYYKRCKYDTCNCQNNEDCLCAALSSYARACTAKGVMLWGWREHVCNKDVGSCPNSQVFLYNLTTCQQTCRSLSEADSHCLEGFAPVDGCGCPDHTFLDEKGRCVPLAKCSCYHRGLYLEAGDVVVRQEERCVCRDGRLHCRQIRLIGQSCTAPKIHMDCSNLTALATSKPRALSCQTLAAGYYHTECVSGCVCPDGLMDDGRGGCVVEKECPCVHNNDLYSSGAKIKVDCNTCTCKRGRWVCTQAVCHGTCSIYGSGHYITFDGKYYDFDGHCSYVAVQDYCGQNSSLGSFSIITENVPCGTTGVTCSKAIKIFMGRTELKLEDKHRVVIQRDEGHHVAYTTREVGQYLVVESSTGIIVIWDKRTTVFIKLAPSYKGTVCGLCGNFDHRSNNDFTTRDHMVVSSELDFGNSWKEAPTCPDVSTNPEPCSLNPHRRSWAEKQCSILKSSVFSICHSKVDPKPFYEACVHDSCSCDTGGDCECFCSAVASYAQECTKEGACVFWRTPDLCPIFCDYYNPPHECEWHYEPCGNRSFETCRTINGIHSNISVSYLEGCYPRCPKDRPIYEEDLKKCVTADKCGCYVEDTHYPPGASVPTEETCKSCVCTNSSQVVCRPEEGKILNQTQDGAFCYWEICGPNGTVEKHFNICSIT
notes: mucin 2 (MUC2), human, Uniprot Q02817, residues 21 to 1259; Probably made with the same QSOX1 signal peptide as MUC2D3, which would leave Ala-Pro at the N-terminus; also called MUC2 D1D2D3; source: HEK293F, produced and purified essentially as for MUC2D3 (no kifunensine; preparative gel filtration in 10 mM Hepes pH 7.5, 20 mM NaCl); not shown: His6, C-terminal, kept
B2: D1D2D3CysD1, mucin 2 recombinant protein spanning residues 21 to 1397 (domain or fragment, human, UniProt Q02817 21-1397, looked up)
chain: SELQTEGRTRNHGHNVCSTWGNFHYKTFDGDVFRFPGLCDYNFASDCRGSYKEFAVHLKRGPGQAEAPAGVESILLTIKDDTIYLTRHLAVLNGAVVSTPHYSPGLLIEKSDAYTKVYSRAGLTLMWNREDALMLELDTKFRNHTCGLCGDYNGLQSYSEFLSDGVLFSPLEFGNMQKINQPDVVCEDPEEEVAPASCSEHRAECERLLTAEAFADCQDLVPLEPYLRACQQDRCRCPGGDTCVCSTVAEFSRQCSHAGGRPGNWRTATLCPKTCPGNLVYLESGSPCMDTCSHLEVSSLCEEHRMDGCFCPEGTVYDDIGDSGCVPVSQCHCRLHGHLYTPGQEITNDCEQCVCNAGRWVCKDLPCPGTCALEGGSHITTFDGKTYTFHGDCYYVLAKGDHNDSYALLGELAPCGSTDKQTCLKTVVLLADKKKNVVVFKSDGSVLLNELQVNLPHVTASFSVFRPSSYHIMVSMAIGVRLQVQLAPVMQLFVTLDQASQGQVQGLCGNFNGLEGDDFKTASGLVEATGAGFANTWKAQSSCHDKLDWLDDPCSLNIESANYAEHWCSLLKKTETPFGRCHSAVDPAEYYKRCKYDTCNCQNNEDCLCAALSSYARACTAKGVMLWGWREHVCNKDVGSCPNSQVFLYNLTTCQQTCRSLSEADSHCLEGFAPVDGCGCPDHTFLDEKGRCVPLAKCSCYHRGLYLEAGDVVVRQEERCVCRDGRLHCRQIRLIGQSCTAPKIHMDCSNLTALATSKPRALSCQTLAAGYYHTECVSGCVCPDGLMDDGRGGCVVEKECPCVHNNDLYSSGAKIKVDCNTCTCKRGRWVCTQAVCHGTCSIYGSGHYITFDGKYYDFDGHCSYVAVQDYCGQNSSLGSFSIITENVPCGTTGVTCSKAIKIFMGRTELKLEDKHRVVIQRDEGHHVAYTTREVGQYLVVESSTGIIVIWDKRTTVFIKLAPSYKGTVCGLCGNFDHRSNNDFTTRDHMVVSSELDFGNSWKEAPTCPDVSTNPEPCSLNPHRRSWAEKQCSILKSSVFSICHSKVDPKPFYEACVHDSCSCDTGGDCECFCSAVASYAQECTKEGACVFWRTPDLCPIFCDYYNPPHECEWHYEPCGNRSFETCRTINGIHSNISVSYLEGCYPRCPKDRPIYEEDLKKCVTADKCGCYVEDTHYPPGASVPTEETCKSCVCTNSSQVVCRPEEGKILNQTQDGAFCYWEICGPNGTVEKHFNICSITTRPSTLTTFTTITLPTTPTTFTTTTTTTTPTSSTVLSTTPKLCCLWSDWINEDHPSSGSDDGDRETFDGVCGAPEDIECRSVKDPHLSLEQLGQKVQCDVSVGFICKNEDQFGNGPFGLCYDYKIRVNCCWPMDKCIT
notes: mucin 2 (MUC2), human, Uniprot Q02817, residues 21 to 1397 (includes the CysD1 domain following a short threonine-rich segment); Probably made with the same QSOX1 signal peptide as MUC2D3, which would leave Ala-Pro at the N-terminus; also called the largest fragment; source: HEK293F, produced and purified essentially as for MUC2D3 (no kifunensine; preparative gel filtration in 10 mM Hepes pH 7.5, …)
B3: MUC2D3, mucin 2 recombinant protein spanning residues 858 to 1259 (domain or fragment)
chain: APGTCSIYGSGHYITFDGKYYDFDGHCSYVAVQDYCGQNSSLGSFSIITENVPCGTTGVTCSKAIKIFMGRTELKLEDKHRVVIQRDEGHHVAYTTREVGQYLVVESSTGIIVIWDKRTTVFIKLAPSYKGTVCGLCGNFDHRSNNDFTTRDHMVVSSELDFGNSWKEAPTCPDVSTNPEPCSLNPHRRSWAEKQCSILKSSVFSICHSKVDPKPFYEACVHDSCSCDTGGDCECFCSAVASYAQECTKEGACVFWRTPDLCPIFCDYYNPPHECEWHYEPCGNRSFETCRTINGIHSNISVSYLEGCYPRCPKDRPIYEEDLKKCVTADKCGCYVEDTHYPPGASVPTEETCKSCVCTNSSQVVCRPEEGKILNQTQDGAFCYWEICGPNGTVEKHFNICSIT
modifications: N-linked glycans (six potential N-linked glycosylation sites); for the crystals endoH-treated to leave only a monosaccharide at glycosylated asparagines; intersubunit disulfides C1088-C1088 and C1130-C1130
notes: cleavage is predicted to occur between the two adjacent alanines; mucin 2 (MUC2), human, Uniprot Q02817, residues 858 to 1259 (VWD3, C8-3, TIL-3 and E-3 domains); Expressed in pcDNA3.1 downstream of the QSOX1 signal peptide; kifunensine/EndoH-treated protein gave the crystals of the solved structure; Disulfide-linked homodimer; also called mucin 2 multimerization module; MUC2 region spanning the …

How the values were obtained:
[1] = target: the molecule itself; assay: SEC-MALS; Superose 6 10/300 column, 0.5 ml/min, 10 mM Tris (pH 7.4), 20 mM NaCl, 0.02% sodium azide
[2] = target: the molecule itself; assay: SEC-MALS; Superdex 200 Increase 10/300 column, 0.5 ml/min, 25 mM Hepes (pH 7.4), 250 mM NaCl, 0.02% sodium azide

Protein | stoichiometry N [1] | stoichiometry N [2]
B1 | 2 | 
B2 | 2 | 
B3 |  | 2

From PMC6739602, “Intestinal Gel-Forming Mucins Polymerize by Disulfide-Mediated Dimerization of D3 Domains” (Journal of Molecular Biology, 2019)
